Assay results from paper PMC7367482, “An Erg11 lanosterol 14-α-demethylase-Arv1 complex is required for Candida albicans virulence” (PLoS ONE, 2020).

Molecular target: T1, ScErg28-Cub (S. cerevisiae, UniProt P40030 1-148)
T1 construct: Erg28 of S. cerevisiae, scaffold of the ergosome; Cub vector pCYC-BAIT-Cub-PLV; source: split-ubiquitin two-hybrid fusion, S. cerevisiae L40
T1 sequence: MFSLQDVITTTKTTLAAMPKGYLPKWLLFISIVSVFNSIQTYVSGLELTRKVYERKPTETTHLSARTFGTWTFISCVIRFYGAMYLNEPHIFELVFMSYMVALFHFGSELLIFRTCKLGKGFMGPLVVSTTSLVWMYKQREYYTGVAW
Test: two-hybrid; split-ubiquitin two-hybrid in S. cerevisiae L40; Cub-PLV and NubG fusions; growth on Trp- Leu- His- plates after 48 hr and >3-fold β-galactosidase activity over the negative control
Conditions: partners not purified

B1: ScErg27-NubG (natural protein)
chain: MNRKVAIVTGTNSNLGLNIVFRLIETEDTNVRLTIVVTSRTLPRVQEVINQIKDFYNKSGRVEDLEIDFDYLLVDFTNMVSVLNAYYDINKKYRAINYLFVNAAQGIFDGIDWIGAVKEVFTNPLEAVTNPTYKIQLVGVKSKDDMGLIFQANVFGPYYFISKILPQLTRGKAYIVWISSIMSDPKYLSLNDIELLKTNASYEGSKRLVDLLHLATYKDLKKLGINQYVVQPGIFTSHSFSEYLNFFTYFGMLCLFYLARLLGSPWHNIDGYKAANAPVYVTRLANPNFEKQDVKYGSATSRDGMPYIKTQEIDPTGMSDVFAYIQKKKLEWDEKLKDQIVETRTPI
notes: Erg27 of S. cerevisiae; Nub vector pADH-PREY-2HA-NubG; source: split-ubiquitin two-hybrid fusion, S. cerevisiae L40
fold increase in β-galactosidase activity over the negative interaction control: 15 fold
